Data as given in patent publication US20050123549A1.

Assays:
[1] = molecular target: Muc1 on DS6 negative & CM1 positive cell lines (KLE, OVCAR3, SKOV3), without the CA6 epitope (human) (UniProt P15941); experiment: flow cytometry on OVCAR3 cells
[2] = molecular target: Muc1 on DS6 negative & CM1 positive cell lines (KLE, OVCAR3, SKOV3), without the CA6 epitope (human) (UniProt P15941); experiment: flow cytometry on OVCAR3 cells, apparent Kd
[3] = molecular target: Muc1 on DS6 negative & CM1 positive cell lines (KLE, OVCAR3, SKOV3), without the CA6 epitope (human) (UniProt P15941); experiment: flow cytometry on SKOV3 cells, apparent Kd
[4] = molecular target: Muc1 mucin carrying the CA6 sialoglycotope (human) (UniProt P15941); experiment: flow cytometry on MCF7 cells, apparent Kd
[5] = molecular target: Muc1 mucin carrying the CA6 sialoglycotope (human) (UniProt P15941); experiment: flow cytometry on MCF7 cells
[6] = molecular target: Muc1 on DS6 negative & CM1 positive cell lines (KLE, OVCAR3, SKOV3), without the CA6 epitope (human) (UniProt P15941); experiment: flow cytometry on KLE cells
[7] = molecular target: Muc1 mucin carrying the CA6 sialoglycotope (human) (UniProt P15941); experiment: flow cytometry on BT549 cells, apparent Kd
[8] = molecular target: Muc1 mucin carrying the CA6 sialoglycotope (human) (UniProt P15941); experiment: flow cytometry on CaOV3 cells, apparent Kd
[9] = molecular target: Muc1 mucin carrying the CA6 sialoglycotope (human) (UniProt P15941); experiment: flow cytometry on HeLa cells
[10] = molecular target: Muc1 mucin carrying the CA6 sialoglycotope (human) (UniProt P15941); experiment: flow cytometry on KB cells, apparent Kd
[11] = molecular target: Muc1 mucin carrying the CA6 sialoglycotope (human) (UniProt P15941); experiment: flow cytometry on KB cells
[12] = molecular target: Muc1 mucin carrying the CA6 sialoglycotope (human) (UniProt P15941); experiment: flow cytometry on CaOV3 cells
[13] = molecular target: Muc1 on DS6 negative & CM1 positive cell lines (KLE, OVCAR3, SKOV3), without the CA6 epitope (human) (UniProt P15941); experiment: flow cytometry on KLE cells, apparent Kd
[14] = molecular target: Muc1 mucin carrying the CA6 sialoglycotope (human) (UniProt P15941); experiment: flow cytometry on BT549 cells
[15] = molecular target: Muc1 mucin carrying the CA6 sialoglycotope (human) (UniProt P15941); experiment: flow cytometry on HeLa cells, apparent Kd
[16] = molecular target: Muc1 on DS6 negative & CM1 positive cell lines (KLE, OVCAR3, SKOV3), without the CA6 epitope (human) (UniProt P15941); experiment: flow cytometry on SKOV3 cells

CM1 antibody (Muc1 VNTR antibody)
MMF (maximum mean relative fluorescence) [1]: 192
Kd [2]: 5.95 nM
Kd [3]: 6.25 nM
Kd [4]: 8.69 nM
MMF (maximum mean relative fluorescence) [5]: 1020
MMF (maximum mean relative fluorescence) [6]: 562
Kd [7]: 6.06 nM
Kd [8]: 7.48 nM
MMF (maximum mean relative fluorescence) [9]: 335
Kd [10]: 5.34 nM
MMF (maximum mean relative fluorescence) [11]: 338
MMF (maximum mean relative fluorescence) [12]: 1030
Kd [13]: 8.16 nM
MMF (maximum mean relative fluorescence) [14]: 188
Kd [15]: 2.91 nM
MMF (maximum mean relative fluorescence) [16]: 49.4
